Target: Full-length human plasma kallikrein, activated form (human, UniProt P03952 20-390; P03952 391-638)
Test: apparent Ki

Sequence of Full-length human plasma kallikrein, activated form (P03952 20-390, chain 1 of 2): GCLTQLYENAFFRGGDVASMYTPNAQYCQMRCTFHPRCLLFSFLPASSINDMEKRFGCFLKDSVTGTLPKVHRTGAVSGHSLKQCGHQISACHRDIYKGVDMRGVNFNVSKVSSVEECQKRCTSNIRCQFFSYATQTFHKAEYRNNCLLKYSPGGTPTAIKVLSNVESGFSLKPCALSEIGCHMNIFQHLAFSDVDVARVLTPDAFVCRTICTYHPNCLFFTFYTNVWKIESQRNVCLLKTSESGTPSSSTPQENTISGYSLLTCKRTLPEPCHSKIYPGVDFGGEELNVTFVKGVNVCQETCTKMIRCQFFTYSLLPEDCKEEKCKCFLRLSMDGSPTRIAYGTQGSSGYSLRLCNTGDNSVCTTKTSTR
Sequence of Full-length human plasma kallikrein, activated form (P03952 391-638, chain 2 of 2): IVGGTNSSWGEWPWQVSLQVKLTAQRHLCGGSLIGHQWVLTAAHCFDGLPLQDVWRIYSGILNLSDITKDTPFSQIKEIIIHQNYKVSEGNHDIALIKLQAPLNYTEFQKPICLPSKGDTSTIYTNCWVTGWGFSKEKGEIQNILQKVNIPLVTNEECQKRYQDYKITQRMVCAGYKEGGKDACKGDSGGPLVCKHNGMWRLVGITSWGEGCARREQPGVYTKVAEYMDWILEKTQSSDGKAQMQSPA

Ki: 5.39 nM
B1: Fab M0162-A04 (lead Fab, parent of the affinity maturation) (Fab, V domains shown)
VH: EVQLLESGGGLVQPGGSLRLSCAASGFTFSHYIMMWVRQAPGKGLEWVSGIYSSGGITVYADSVKGRFTISRDNSKNTLYLQMNSLRAEDTAVYYCAYRRTGIPRRDAFDIWGQGTMVTVSS
VL: DIQMTQSPSTLSASVGDRVTITCRASQSISSWLAWYQQKPGKAPNLLIYKASTLESGVPSRFSGSGSGTEFTLTISSLQPDDFATYYCQQYNTYWTFGQGTKVEIK

From paper PMC4156074 (2014)
